# How the values were obtained:
# [1] = amifostine treatment, intravenous route, cancer patients; cited from earlier work
# bone marrow MSCs = test: DNA synthesis ([3H]thymidine incorporation) in MSCs; format: cell-based, human; conditions: 20 hours
# From the text: For the experiment, bone marrow aspirates were taken from normal human adult donors after informed consent. For the preparation of bone marrow MSCs, essentially a widely used technique was used as described earlier by others [Pittenger, M. F., Mackay, A. M., Beck, S. C., et al. (1999) Multilineage potential of adult human mesenchymal stem cells. Science 284, 143-147]. Briefly, nucleated cells were isolated with a pre-prepared commercial density gradient (Lymphoprep, Nycomed, Pharma, Oslo, Norway) and re-suspended in Dulbecco's modified Eagle's medium (DMEM) (GIBCO, Grand Island, NY) supplemented with 10% fetal calf serum (FCS), 50 U/ml of penicillin, and 50 μg/ml of streptomycin (GIBCO). All nucleated cells were plated in 25-cm^2 flasks (BD Falcon, Bedford, MA) at 37° C. in humidified atmosphere containing 5% CO2. After 24 hours, non-adherent cells were removed and cryopreserved in liquid nitrogen until use. The remaining adherent cells were thoroughly washed with Hanks balanced salt solution (HBSS) (GIBCO). Fresh complete culture medium was added and replaced every 3 or 4 days (twice a week). When cells grew to about 80% confluence, they were suspended and harvested by incubating with a ready-made solution containing 0.25% trypsin and 1 mM EDTA (Sigma-Aldrich, St. Louis, MO) for 5 minutes at 37° C.; this cell suspension is designated as passage 1. These cells were further expanded with 1:3-1:5 splitting in 175-cm^2 flasks (BD Falcon). For the determination of DNA synthesis, cells were divided into 12-well plates in the complete medium and let the cells grow to about 60% confluence. After changing the spent medium for fresh complete medium (i.e., containing 10% fetal calf serum), cells were treated for 20 hours with 20-100 μM ATP and/or 200 nM PLAP as well as 50-200 μM Cyp in the absence or presence of 200 nM PLAP. For labeling newly formed DNA, cells received 1,130,000 d.p.m. [^3H] thymidine for the last 4 hours of the treatment period. DNA synthesis was determined as described earlier [She, Q.-B., Mukherjee, J. J., Huang, J.-S., Crilly, K. S. and Kiss, Z. (2000) Growth factor-like effects of placental alkaline phosphatase in human fetus and mouse embryo fibroblasts. FEBS Lett. 469, 163-167]. The data is expressed as d.p.m. [^3H] thymidine incorporated into DNA/well (n=3).
# [2] = Spectrophotometric assay of PLAP enzyme activity (hydrolysis of 4-nitrophenylphosphate); format: biochemical; conditions: 22° C., pH 9.8, 10 mM 4-nitrophenylphosphate
# From the text: Human PLAP (Type XXIV, 1020 units of total activity) in a partially purified form was obtained commercially from Sigma-Aldrich. A butanol extraction of placental tissue performed by Sigma-Aldrich to obtain the partially purified material was followed by chromatography steps as described in [Chang, T.-C., Huang, S.-M, Huang, T.-M. and Chang, G.-G. Human placental alkaline phosphatase: An improved purification procedure and kinetic studies. Eur. J. Biochem. 209, 241-247, 1992] to obtain an essentially pure preparation of PLAP as determined by sodium dodecyl sulfate-polyacrylamide gel electrophoresis (SDS-PAGE). The enzyme activity of PLAP was assayed using a spectroscopic method to monitor the hydrolysis of 4-nitrophenylphosphate (as an increase in absorbance at 410 nm) at room temperature (22° C.) as described in [Chang, G.-G., Shiao, M.-S., Lee, K.-R. and Wu, J.-J., Modification of human placental alkaline phosphatase by periodate-oxidized 1,N6-ethenoadenosine monophosphate. Biochem. J., 272, 683-690, 1990]. Activity analysis of 5-10-μg purified enzyme was performed in 1 mL incubation volume containing 50 mM Na2CO3/NaHCO3, 10 mM MgCl2, 10 mM 4-nitrophenylphosphate at pH 9.8. The extinction coefficient of 4-nitrophenol was taken as 1.62×10^4 M^−1 cm^−1. An enzyme activity of 1 U (unit) is defined as 1 μmole substrate hydrolyzed per 1 min at 22° C. at pH 9.8. […]
# [3] = test system: mouse bone marrow-derived hematopoietic stem cells (HSCs); conditions: 3 days
# Description: Bone marrow was harvested by flushing bones from female C57/BL/6 mice in Fischer medium (Thermo Fisher Scientific; catalogue no. 21475025) containing 20% horse serum (Hyclone, Logan, UT), 100 Unit/ml penicillin, […] streptomycin (Gibco, BRL), 0.015 fungizone (Gibco, BRL), and 0.1 μM hydrocortisone sodium succinate (SynoPharm; Hamburg, Germany). Pooled stem cells were seeded into 25 cm 3 flasks (10 ml cell suspension) and after 3 days of incubation at 33° C. in 5% CO2 in air in the absence of PLAP, they were plated into 12-well plates and were incubated in the absence (n=8) or presence of 50 μg/ml PLAP (n=8) for additional 3 days.
# In a follow up experiment with hematopoietic stem cells, the same incubation medium in 12-well plates contained either no other addition (n=8) or contained 200 μM Cyp without (n=8) or with 50 μg/ml PLAP (n=8) for 3 days.
# [4] = purified PLAP; cited from earlier work
molecule,measurement,setting,value
NCCCNCCSP(=O)(O)O [amifostine],"patients with reversible clinical hypotension, protracted nausea and vomiting",[1],15-20%
Nc1ncnc2c1ncn2[C@@H]1O[C@H](COP(=O)(O)OP(=O)(O)OP(=O)(O)O)[C@@H](O)[C@H]1O [ATP],d.p.m. [^3H] thymidine incorporated into DNA/well,"bone marrow MSCs; ATP 20 μM, no PLAP","70,738 ± 1,367 d.p.m."
same,d.p.m. [^3H] thymidine incorporated into DNA/well,"bone marrow MSCs; ATP 50 μM, no PLAP","55,808 ± 1,480 d.p.m."
same,d.p.m. [^3H] thymidine incorporated into DNA/well,"bone marrow MSCs; ATP 100 μM, no PLAP","38,601 ± 1,940 d.p.m."
"PLAP: highly purified native placental alkaline phosphatase derived from human placenta via conventional purification methods (protein, UniProt P05187 23-506, looked up) Alkaline phosphatase, …: IIPVEEENPDFWNREAAEALGAAKKLQPAQTAAKNLIIFLGDGMGVSTVTAARILKGQKKDKLGPEIPLAMDRFPYVALSKTYNVDKHVPDSGATATAYLCGVKGNFQTIGLSAAARFNQCNTTRGNEVISVMNRAKKAGKSVGVVTTTRVQHASPAGTYAHTVNRNWYSDADVPASARQEGCQDIATQLISNMDIDVILGGGRKYMFRMGTPDPEYPDDYSQGGTRLDGKNLVQEWLAKRQGARYVWNRTELMQASLDPSVTHLMGLFEPGDMKYEIHRDSTLDPSLMEMTEAALRLLSRNPRGFFLFVEGGRIDHGHHESRAYRALTETIMFDDAIERAGQLTSEEDTLSLVTADHSHVFSFGGYPLRGSSIFGLAPGKARDRKAYTVLLYGNGPGYVLKDGARPDVTESESGSPEYRQQSAVPLDEETHAGEDVAVFARGPQAHLVHGVQEQTFIAHVMAFAACLEPYTACDLAPPAGTTD",specific activity of purified PLAP,[2],685 Units per mg protein
same,d.p.m. [^3H] thymidine incorporated into DNA/well,bone marrow MSCs; PLAP 200 nM + ATP 20 μM,"90,708 ± 2,518 d.p.m."
same,d.p.m. [^3H] thymidine incorporated into DNA/well,bone marrow MSCs; PLAP 200 nM + ATP 50 μM,"84,740 ± 3,231 d.p.m."
same,d.p.m. [^3H] thymidine incorporated into DNA/well,bone marrow MSCs; PLAP 200 nM + ATP 100 μM,"80,916 ± 2,252 d.p.m."
same,d.p.m. [^3H] thymidine incorporated into DNA/well,bone marrow MSCs; PLAP 200 nM + Cyp 50 μM,"81,887 ± 3,173 d.p.m."
same,d.p.m. [^3H] thymidine incorporated into DNA/well,bone marrow MSCs; PLAP 200 nM + Cyp 200 μM,"74,798 ± 2,408 d.p.m."
same,d.p.m. [^3H] thymidine incorporated into DNA/well,"bone marrow MSCs; PLAP 200 nM, no ATP","89,865 ± 2,021 d.p.m."
same,change of the number of hematopoietic stem cells,"[3]; 50 μg/ml PLAP, no Cyp",did not significantly change
same,decrease of the number of cells by Cyp,"[3]; 200 μM Cyp, presence of 50 μg/ml PLAP",10%
same,half-life time in human circulation,[4],about 7 days
